Experimental data: patent publication US6906176B2, “Enterokinase cleavage sequences” (Dyax Corp., priority 2000, dated 2005)
Marks after values point to notes of the source that are not given here.

Experiments:
Format in all cases: biochemical
[1] = target: T1, recombinant light chain enterokinase (Bos taurus, UniProt P98072); assay: Cleavage site test: digestion of synthetic test peptides to completion, HPLC and mass spectroscopy; conditions: for extent of enterokinase digestion: 36-48 hrs with 20U enterokinase, HPLC; for recovered product, product peak 1 / recovered product, product peak 2: 60 to 100 μg peptide digested to completion (36-48 hrs) with 20U enterokinase, reverse phase HPLC, electrospray MS
T1 construct: enterokinase cleavage using 30 nM recombinant light chain enterokinase (Novagen); purchased Novagen, Madison, Wis
T1 sequence (P98072 801-1035 limits assumed): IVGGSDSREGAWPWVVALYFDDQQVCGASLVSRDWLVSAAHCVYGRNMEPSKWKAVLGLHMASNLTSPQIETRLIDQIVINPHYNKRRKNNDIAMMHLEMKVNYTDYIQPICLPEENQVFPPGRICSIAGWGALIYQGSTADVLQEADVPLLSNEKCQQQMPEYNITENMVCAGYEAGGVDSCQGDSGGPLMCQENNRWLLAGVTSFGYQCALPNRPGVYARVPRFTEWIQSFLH
Protocol: To further test the predicted cleavage site as well as the rates and extent of cleavage, seven test peptides shown in Table 6 were chemically synthesized, contacted with enterokinase, and analyzed by HPLC and mass spectrometric analysis.
To test the predicted cleavage site, i.e., following the acid-base dipeptide motif, 60 to 100 μg of each test peptide was digested to completion (36-48 hrs) with 20U of recombinant light chain enterokinase (Novagen) and analyzed by reverse phase HPLC. Product peaks were eluted with a water/acetonitrile (H2O/ACN) gradient and identified by electrospray mass spectroscopy.
“% ACN” estimates the position in the H2O/Acetonitrile gradient at which the indicated cleavage fragment eluted. The expected product peaks for GDDDDK (residue 1-6 SEQ ID NO:197) and NKAKDR (residues 1-6, SEQ ID NO:201) were not detected by HPLC, but the cleavage site could be determined from analyzing the alternate product peak, i.e., the peptide to the C-terminal side of the cleavage site.

enterokinase = target: T2, enterokinase (Bos taurus, UniProt P98072); assay: Substrate competition with reference peptide GDDDDK-βNA; conditions: for reference peptide rate (Vb): rate of reference peptide GDDDDK-βNA 250 μM in competition with the test peptide 250 μM; for ratio (Va/Vb): test peptide cleavage rate to reference peptide cleavage rate, 250 μM each; for ratio kcat/Km, times greater than that of the reference peptide: tested in competition at 250 μM
T2 construct: provide a substrate specifically recognized and cleaved by recombinant light chain enterokinase
T2 sequence (P98072 801-1035 limits assumed): as above
Protocol: Rates of substrate hydrolysis depends on several factors, namely, concentration of enzyme and substrate, Km (Michaelis constant) values, and kcat (catalytic rate constant) values. One way to compare the relative efficiencies with which a protease hydrolyses two substrates (a and b) is to simultaneously incubate both substrates in a single reaction with the enzyme and measure the rates of product formation for each (Va and Vb). If the total product formation is low (<10%), the starting concentrations of the two competing substrates are the same, and the reaction is performed at steady-state: Va/Vb=(kcat/Km)a/(kcat/Km)b Relative ratios of kcat/Km can be determined from relative rates of substrate hydrolysis.
To compare the relative efficiency of hydrolysis by enterokinase, reference peptide (GDDDDK-βNA, 250 μM, SEQ ID NO:203) was incubated simultaneously with one of the test peptides (250 μM), treated with enterokinase, and the relative rate of product formation measured. The products were quantitated by HPLC and initial cleavage rates calculated.

[2] = target: T1, recombinant light chain enterokinase; assay: Relative rate of cleavage of synthetic peptides by HPLC; conditions: about 500 μM peptide; for cleavage rate compared with the other peptides (in words): 50 nM enterokinase; for Cleavage Rate: 50 nM recombinant light chain enterokinase
Protocol: Peptides were digested with enterokinase and aliquots tested at timed intervals by HPLC to quantitate the extent of cleavage. For each test peptide, about 500 μM of peptide were digested with 50 nM of recombinant light chain enterokinase. The seven synthetic peptides were compared with a commercially available standard EK cleavage substrate, GDDDDK-β-naphthylamine (GDDDDK-βNA, SEQ ID NO:203; from BACHEM, King of Prussia, Pa.), having a fluorescent leaving group that increases in fluorescence when it is cleaved.

[3] = target: T1, recombinant light chain enterokinase; assay: as above; conditions: relative to GDDDDK-βNA; peptides tested individually at 500 μM
[4] = target: T1, recombinant light chain enterokinase; assay: Phage ELISA kinetics of enterokinase cleavage of phage isolates; conditions: streptavidin-bound phage, 30 nM or 130 nM enterokinase, 30 minutes
Protocol: FIG. 1 and FIG. 2 show the time course of enterokinase cleavage of phage isolates from five rounds of screening a substrate phage library. The tested isolates were those having recurring sequences among 90 sequenced isolates. The isolates are tested in comparison with an isolate (5-H11) containing the known enterokinase cleavage sequence DDDDK and an unselected phage displaying a polypeptide not recognized by enterokinase.
Phage displaying each of the sequences shown in Table 5 were tested individually for kinetics of enterokinase cleavage using a phage ELISA. Streptavidin-bound phage were treated with either 30 nM or 130 nM enterokinase for 30 minutes. The time courses of phage release are shown in FIG. 1 (release at 30 nM EK) and FIG. 2 (release at 130 nM EK). Phage from the unselected substrate library were used as a control, i.e., isolate 5-F08. (SEQ ID NO:196).

| Substance | extent of enterokinase digestion [1] | extent of enterokinase digestion ([1]; listed as negative control peptide) | reference peptide rate (Vb) (enterokinase) | ratio (Va/Vb) (enterokinase) | ratio kcat/Km, times greater than that of the reference peptide (enterokinase) | cleavage rate compared with the other peptides (in words) [2] | Cleavage Rate [2] | recovered product, product peak 1 [1] | recovered product, product peak 2 [1] | rate relative to standard substrate [3] | enterokinase cleavage rate of phage isolate (phage release) [4] |
| --- | --- | --- | --- | --- | --- | --- | --- | --- | --- | --- | --- |
| AVLSNVMFT (AVLSNVMFI; negative control in EK cleavage experiment) [AVLSNVMFII, negative control test peptide, reference compound] | not cleaved at all | No cleavage | – | – | – | – | – | – | – | – | – |
| DINDDRSLF (synthetic enterokinase cleavage sequence) | – | – | 0.006 | 30 | 30 | cleaved significantly more rapidly than the two control peptides | 1/43 | DINDDR | SLF | 3.1 | – |
| DINDDRSLFSESS (synthetic enterokinase cleavage sequence) [Isolate 5-H04, round 5 phage isolate] | – | – | – | – | – | – | – | – | – | – | most readily cut |
| GDDDDK-β-naphthylamine [GDDDDK-βNA, reference compound] | – | – | – | – | – | cleaved at nearly equal rates and more rapidly than the remaining three peptides tested | 0.46 nmol/min | – | – | (1.0) | – |
| GDDDDKIYV (natural enterokinase cleavage sequence) [reference compound] | – | – | 0.027 | 1.0 | – | cleaved at nearly equal rates and more rapidly than the remaining three peptides tested | 0.34 nmol/min | – | IYV | 0.7 | – |
| GNYTDRMFI (synthetic enterokinase cleavage sequence) | – | – | 0.011 | 3.5 | 3.5 | cleaved significantly more rapidly than the two control peptides | 0.81 nmol/min | GNYTDR | MET | 1.8 | – |
| GNYTDRRFI (synthetic enterokinase cleavage sequence) | – | – | – | – | – | – | 0.18 nmol/min | GNYTDR | RFI | 0.4 | – |
| GNYTDRYFI (commercial synthetic enterokinase cleavage substrate) | – | – | – | – | – | – | 0.24 nmol/min | GNYTDR | YFI | 0.5 | – |
| MGDDDDKIYVYKT (synthetic enterokinase cleavage sequence) [Isolate 5-H11, reference compound] | – | – | – | – | – | – | – | – | – | – | slower than for at least three of the other isolates |
| NKAKDRMFI (synthetic enterokinase cleavage sequence) | – | – | – | – | – | – | ~0.26* nmole/min. | – | MFI | 0.6 | – |
